Measured values reported in the supplement of paper PMC10899765.

Tests used:
Details in all cases: 20 nM; 72 h
MCF10A [1] = experiment: percent viability (nuclei count relative to siNT); higher = more viable cells
Experimental: (§1)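 After 72 h, cells were fixed and stained with Hoechst and anti-fibrillarin, and nucleoli per nucleus were counted with CellProfiler. Values are plate-adjusted percent effect for the one-nucleolus and 5+ nucleoli phenotypes, normalised to siNT (0%) and to the positive controls siNOL11 or siKIF11 (100%), as the mean of biological triplicates. Percent viability is the nuclei count relative to siNT.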

MCF10A [2] = experiment: 5+ nucleoli phenotype percent effect (relative to siNT 0% and siKIF11 100%); higher = more cells with five or more nucleoli
Experimental: as §1

MCF10A [3] = experiment: one-nucleolus phenotype percent effect (relative to siNT 0% and siNOL11 100%); higher = more cells with one nucleolus (ribosome biogenesis inhibition)
Experimental: as §1

Row | Sequence | percent viability (MCF10A [1]) | 5+ nucleoli phenotype percent effect (MCF10A [2]) | one-nucleolus phenotype percent effect (MCF10A [3])
1 | UCUAGUGCGGGCGUUCCCG [hsa-miR-6080] | 85.3% | 23.2% | -6.26%
2 | UCUAUACAGACCCUGGCUUUUC [hsa-miR-1284] | 75.8% | 31.3% | -16.5%
3 | UCUAUUCCCCACUCUCCCCAG [hsa-miR-6731-3p] | 32.5% | -13.6% | -0.0733%
4 | UCUCACACAGAAAUCGCACCCGU [hsa-miR-342-3p] | 78.4% | -4.22% | -2.78%
5 | UCUCACCCCAACUCUGCCCCAG [hsa-miR-6784-3p] | 56.5% | 44.3% | -25.6%
6 | UCUCACUGUAGCCUCGAACCCC [hsa-miR-1304-3p] | 44.7% | 22.9% | -27.3%
7 | UCUCAGCUGCUGCCCUCUCCAG [hsa-miR-6787-3p] | 116% | 41.8% | -24.6%
8 | UCUCAGGAGUAAAGACAGAGUU [hsa-miR-3664-3p] | 86.7% | 17.2% | -19.4%
9 | UCUCAGUAAGUGGCACUCUGU [hsa-miR-4797-3p] | 47.4% | -38.9% | 57.2%
10 | UCUCCCAACCCUUGUACCAGUG [hsa-miR-150-5p] | 224% | 26.7% | -2.57%
11 | UCUCCCUUCCUGCCCUGGCUAG [hsa-miR-4685-3p] | 98.4% | 29.5% | -25.3%
12 | UCUCGCAUCAGGAGGCAAGG [hsa-miR-6872-5p] | 56% | 24.9% | -13%
13 | UCUCUCGGCUCCUCGCGGCUC [hsa-miR-3615] | 69.8% | 27.8% | -7.12%
14 | UCUCUCUCCCACUUCCCUGCAG [hsa-miR-7110-3p] | 25.4% | 1.36% | -0.286%
15 | UCUCUCUGACUCCAUGGCA [hsa-miR-6817-3p] | 39.3% | 1.83% | 1.99%
16 | UCUCUGAGCAAGGCUUAACACC [hsa-miR-4653-5p] | 50.6% | -12.4% | 18.9%
17 | UCUCUGAGUACCAUAUGCCUUGU [hsa-miR-3921] | 59.6% | -6.05% | -20.1%
18 | UCUCUGCUCUGCUCUCCCCAG [hsa-miR-6728-3p] | 28.9% | 19.2% | -7.63%
19 | UCUCUGGAGGGAAGCACUUUCUG [hsa-miR-518c-5p] | 45.4% | -17.1% | 33.3%
20 | UCUCUGGUCUUGCCACCCCAG [hsa-miR-6824-3p] | 26.4% | -18.8% | 16.2%
